This assay deals with recombinant human VEGF165 protein (human) (UniProt P15692). In words: cell-based or functional assay.

The record followed here is patent publication US20220135665A1.

Chain of EYLEA (Aflibercept) (Fc fusion) (chain): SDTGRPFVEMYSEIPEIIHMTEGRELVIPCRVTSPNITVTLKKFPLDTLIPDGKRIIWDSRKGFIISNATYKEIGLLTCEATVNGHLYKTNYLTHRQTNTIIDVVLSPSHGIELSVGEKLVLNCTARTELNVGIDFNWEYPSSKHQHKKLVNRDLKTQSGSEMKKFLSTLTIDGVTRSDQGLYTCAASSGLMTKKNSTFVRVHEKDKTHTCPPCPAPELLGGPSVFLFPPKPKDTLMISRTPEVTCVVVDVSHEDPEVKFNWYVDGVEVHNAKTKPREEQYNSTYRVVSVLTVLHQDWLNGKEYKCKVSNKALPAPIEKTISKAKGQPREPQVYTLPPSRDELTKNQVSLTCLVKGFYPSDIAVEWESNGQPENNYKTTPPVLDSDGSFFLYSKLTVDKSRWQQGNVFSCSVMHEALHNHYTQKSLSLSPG
Chain of Conbercept (Fc fusion) (chain): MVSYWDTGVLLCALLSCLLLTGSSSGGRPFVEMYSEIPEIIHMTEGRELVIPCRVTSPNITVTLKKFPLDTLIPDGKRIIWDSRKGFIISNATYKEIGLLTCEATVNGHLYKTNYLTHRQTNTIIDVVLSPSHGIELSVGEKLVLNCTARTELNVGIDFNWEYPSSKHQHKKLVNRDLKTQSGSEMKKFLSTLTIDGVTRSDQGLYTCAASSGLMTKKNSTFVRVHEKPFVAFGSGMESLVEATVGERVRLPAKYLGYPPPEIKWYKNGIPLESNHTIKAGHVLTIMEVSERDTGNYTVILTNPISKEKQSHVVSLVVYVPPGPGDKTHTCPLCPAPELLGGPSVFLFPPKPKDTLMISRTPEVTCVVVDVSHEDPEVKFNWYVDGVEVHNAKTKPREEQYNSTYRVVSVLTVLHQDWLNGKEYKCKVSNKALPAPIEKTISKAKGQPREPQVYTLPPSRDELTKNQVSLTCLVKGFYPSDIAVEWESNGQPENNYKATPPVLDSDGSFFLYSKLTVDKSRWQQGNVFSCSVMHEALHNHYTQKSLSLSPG

On to EYLEA (Aflibercept) (Fc fusion), for which the EC50(nM), neutralization of HUVEC proliferation, VEGF165 at 10 ng/mL worked out at 0.15 nM; the EC50(nM), neutralization of HUVEC proliferation, VEGF165 at 100 ng/mL came out at 2.56 nM; the EC50(nM), neutralization of HUVEC proliferation, VEGF165 at 1000 ng/mL worked out at 32.4 nM; the Maximum neutralization rate (%), VEGF165 at 10 ng/mL is 92.7%. Further, the Maximum neutralization rate (%), VEGF165 at 100 ng/mL worked out at 89.6% and the Maximum neutralization rate (%), VEGF165 at 1000 ng/mL is 76.7%.

With Conbercept (Fc fusion), the EC50(nM), neutralization of HUVEC proliferation, VEGF165 at 10 ng/mL came to 0.18 nM; the EC50(nM), neutralization of HUVEC proliferation, VEGF165 at 100 ng/mL is 2.86 nM; the EC50(nM), neutralization of HUVEC proliferation, VEGF165 at 1000 ng/mL was determined as 29 nM; the Maximum neutralization rate (%), VEGF165 at 10 ng/mL was determined as 102%. Moreover, the Maximum neutralization rate (%), VEGF165 at 100 ng/mL worked out at 99.7% and the Maximum neutralization rate (%), VEGF165 at 1000 ng/mL was 108%.
